In PMC7822889:
“And” between values parts separate entries of the source, which are not always exact repeats. Identical values can stand only once.

Target: SpyCatcher003-mi3 VLP

SpyTag-RBD (from UniProt P0DTC2 331-529) (domain or fragment)
display efficiency: 93%
display efficiency (1:1 molar ratio): 64%
stoichiometry N: 56 RBDs per VLP and 38 RBD per VLP
